# B1: bsAb042 (bispecific antibody)
# heavy 1: QVQLVQSGVEVKKPGASVKVSCKASGYTFTNYYMYWVRQAPGQGLEWMGGINPSNGGTNFNEKFKNRVTLTTDSSTTTAYMELKSLQFDDTAVYYCARRDYRFDMGFDYWGQGTTVTVSS
# heavy 2: QVQLVQSGAEVKKPGASVKLSCKASGYIFTRYYMYWVKQRPGQGLEWIGEINPNNGGTKFNEKFKNRATLTVDKSISTAYMELSRLRSDDTAVYYCSREDDYDGTPFAMDYWGQGTLVTVSSGGGGSGGGGSGGGGSGGGGSDIQMTQSPSSLSASVGDRVTITCHASQNINVWLSWYQQKPGKAPKLLIYKASNLHTGVPSRFTGSGSGTDFTFTISSLQPEDIATYYCQQGQTYPYTFGQGTKLEIKGGGGSGGGGSGGGGSGGGGS
# light: EIVLTQSPATLSLSPGERATLSCRASKGVSTSGYSYLHWYQQKPGQAPRLLIYLASYLESGVPARFSGSGSGTDFTLTISSLEPEDFAVYYCQHSRDLPLTFGGGTKVEIKRTVAAPSVFIFPPSDEQLKSGTASVVCLLNNFYPREAKVQWKVDNALQSGNSQESVTEQDSKDSTYSLSSTLTLSKADYEKHKVYACEVTHQGLSSPVTKSFNRGECGGGGSGGGGSGGGGSGGGGSDIQMTQSPSSLSASVGDRVTITCHASQNINVWLSWYQQKPGKAPKLLIYKASNLHTGVPSRFTGSGSGTDFTFTISSLQPEDIATYYCQQGQTYPYTFGQGTKLEIKGGGGSGGGGSGGGGSGGGGSQVQLVQSGAEVKKPGASVKLSCKASGYIFTRYYMYWVKQRPGQGLEWIGEINPNNGGTKFNEKFKNRATLTVDKSISTAYMELSRLRSDDTAVYYCSREDDYDGTPFAMDYWGQGTLVTVSS
# notes: one Fab arm anti-PD-1, two scFv anti-BTN3A; not shown: IgG1 CH1-hinge-CH2-CH3; CH2-CH3 (Fc)
# B2: bsAb001 (bispecific antibody, human IgG1, kappa)
# heavy: QVQLVQSGAEVKKPGASVKLSCKASGYIFTRYYMYWVKQRPGQGLEWIGEINPNNGGTKFNEKFKNRATLTVDKSISTAYMELSRLRSDDTAVYYCSREDDYDGTPFAMDYWGQGTLVTVSSASTKGPSVFPLAPSSKSTSGGTAALGCLVKDYFPEPVTVSWNSGALTSGVHTFPAVLQSSGLYSLSSVVTVPSSSLGTQTYICNVNHKPSNTKVDKRVEPKSCDKTHTCPPCPAPEFEGGPSVFLFPPKPKDTLMISRTPEVTCVVVDVSHEDPEVKFNWYVDGVEVHNAKTKPREEQYNSTYRVVSVLTVLHQDWLNGKEYKCKVSNKALPASIEKTISKAKGQPREPQVYTLPPSREEMTKNQVSLTCLVKGFYPSDIAVEWESNGQPENNYKTTPPVLDSDGSFFLYSKLTVDKSRWQQGNVFSCSVMHEALHNHYTQKSLSLSPGGGGGSGGGGSGGGGSGGGGSQVQLVQSGVEVKKPGASVKVSCKASGYTFTNYYMYWVRQAPGQGLEWMGGINPSNGGTNFNEKFKNRVTLTTDSSTTTAYMELKSLQFDDTAVYYCARRDYRFDMGFDYWGQGTTVTVSSGGGGSGGGGSGGGGSGGGGSEIVLTQSPATLSLSPGERATLSCRASKGVSTSGYSYLHWYQQKPGQAPRLLIYLASYLESGVPARFSGSGSGTDFTLTISSLEPEDFAVYYCQHSRDLPLTFGGGTKVEIK
# light: not shown
# notes: IgG anti-BTN3A, scFv anti-PD-1 (VH-VL) at heavy chain C-terminus
# B3: bsAb018 (bispecific antibody)
# heavy: EIVLTQSPATLSLSPGERATLSCRASKGVSTSGYSYLHWYQQKPGQAPRLLIYLASYLESGVPARFSGSGSGTDFTLTISSLEPEDFAVYYCQHSRDLPLTFGGGTKVEIKGGGGSGGGGSGGGGSGGGGSQVQLVQSGVEVKKPGASVKVSCKASGYTFTNYYMYWVRQAPGQGLEWMGGINPSNGGTNFNEKFKNRVTLTTDSSTTTAYMELKSLQFDDTAVYYCARRDYRFDMGFDYWGQGTTVTVSSGGGGSGGGGSGGGGSGGGGSQVQLVQSGAEVKKPGASVKLSCKASGYIFTRYYMYWVKQRPGQGLEWIGEINPNNGGTKFNEKFKNRATLTVDKSISTAYMELSRLRSDDTAVYYCSREDDYDGTPFAMDYWGQGTLVTVSSASTKGPSVFPLAPSSKSTSGGTAALGCLVKDYFPEPVTVSWNSGALTSGVHTFPAVLQSSGLYSLSSVVTVPSSSLGTQTYICNVNHKPSNTKVDKRVEPKSCDKTHTCPPCPAPEFEGGPSVFLFPPKPKDTLMISRTPEVTCVVVDVSHEDPEVKFNWYVDGVEVHNAKTKPREEQYNSTYRVVSVLTVLHQDWLNGKEYKCKVSNKALPASIEKTISKAKGQPREPQVYTLPPSREEMTKNQVSLTCLVKGFYPSDIAVEWESNGQPENNYKTTPPVLDSDGSFFLYSKLTVDKSRWQQGNVFSCSVMHEALHNHYTQKSLSLSPG
# light: not shown
# notes: IgG anti-BTN3A, scFv anti-PD-1
# B4: bsAb003 (bispecific antibody, human IgG1, kappa)
# heavy: QVQLVQSGAEVKKPGASVKLSCKASGYIFTRYYMYWVKQRPGQGLEWIGEINPNNGGTKFNEKFKNRATLTVDKSISTAYMELSRLRSDDTAVYYCSREDDYDGTPFAMDYWGQGTLVTVSSASTKGPSVFPLAPSSKSTSGGTAALGCLVKDYFPEPVTVSWNSGALTSGVHTFPAVLQSSGLYSLSSVVTVPSSSLGTQTYICNVNHKPSNTKVDKRVEPKSCDKTHTCPPCPAPEFEGGPSVFLFPPKPKDTLMISRTPEVTCVVVDVSHEDPEVKFNWYVDGVEVHNAKTKPREEQYNSTYRVVSVLTVLHQDWLNGKEYKCKVSNKALPASIEKTISKAKGQPREPQVYTLPPSREEMTKNQVSLTCLVKGFYPSDIAVEWESNGQPENNYKTTPPVLDSDGSFFLYSKLTVDKSRWQQGNVFSCSVMHEALHNHYTQKSLSLSPGGGGGSGGGGSGGGGSGGGGSEVQLVESGGGLVQPGGSLRLSCAASGFTFSRYWMSWVRQAPGKGLEWVANIKQDGSEKYYVDSVKGRFTISRDNAKNSLYLQMNSLRAEDTAVYYCAREGGWFGELAFDYWGQGTLVTVSSGGGGSGGGGSGGGGSGGGGSEIVLTQSPGTLSLSPGERATLSCRASQRVSSSYLAWYQQKPGQAPRLLIYDASSRATGIPDRFSGSGSGTDFTLTISRLEPEDFAVYYCQQYGSLPWTFGQGTKVEIK
# light: not shown
# notes: IgG anti-BTN3A, scFv anti-PD-L1 (VH-VL) at heavy chain C-terminus
# B5: ICT01 (antibody, V domains shown)
# VH: QVQLVQSGAEVKKPGASVKLSCKASGYIFTRYYMYWVKQRPGQGLEWIGEINPNNGGTKFNEKFKNRATLTVDKSISTAYMELSRLRSDDTAVYYCSREDDYDGTPFAMDYWGQGTLVTVSS
# VL: DIQMTQSPSSLSASVGDRVTITCHASQNINVWLSWYQQKPGKAPKLLIYKASNLHTGVPSRFTGSGSGTDFTFTISSLQPEDIATYYCQQGQTYPYTFGQGTKLEIK
# notes: also called anti-BTN3A mAb; mAb 7.2
# B6: bsAb014 (bispecific antibody)
# heavy: QVQLVQSGAEVKKPGASVKLSCKASGYIFTRYYMYWVKQRPGQGLEWIGEINPNNGGTKFNEKFKNRATLTVDKSISTAYMELSRLRSDDTAVYYCSREDDYDGTPFAMDYWGQGTLVTVSSASTKGPSVFPLAPSSKSTSGGTAALGCLVKDYFPEPVTVSWNSGALTSGVHTFPAVLQSSGLYSLSSVVTVPSSSLGTQTYICNVNHKPSNTKVDKRVEPKSCDKTHTCPPCPAPEFEGGPSVFLFPPKPKDTLMISRTPEVTCVVVDVSHEDPEVKFNWYVDGVEVHNAKTKPREEQYNSTYRVVSVLTVLHQDWLNGKEYKCKVSNKALPASIEKTISKAKGQPREPQVYTLPPSREEMTKNQVSLTCLVKGFYPSDIAVEWESNGQPENNYKTTPPVLDSDGSFFLYSKLTVDKSRWQQGNVFSCSVMHEALHNHYTQKSLSLSPG
# light: not shown
# notes: as for B3
# B7: bsAb026 (bispecific antibody)
# heavy: QVQLVQSGAEVKKPGASVKLSCKASGYIFTRYYMYWVKQRPGQGLEWIGEINPNNGGTKFNEKFKNRATLTVDKSISTAYMELSRLRSDDTAVYYCSREDDYDGTPFAMDYWGQGTLVTVSSASTKGPSVFPLAPSSKSTSGGTAALGCLVKDYFPEPVTVSWNSGALTSGVHTFPAVLQSSGLYSLSSVVTVPSSSLGTQTYICNVNHKPSNTKVDKRVEPKSCDKTHTCPPCPAPEFEGGPSVFLFPPKPKDTLMISRTPEVTCVVVDVSHEDPEVKFNWYVDGVEVHNAKTKPREEQYNSTYRVVSVLTVLHQDWLNGKEYKCKVSNKALPASIEKTISKAKGQPREPQVYTLPPSREEMTKNQVSLTCLVKGFYPSDIAVEWESNGQPENNYKTTPPVLDSDGSFFLYSKLTVDKSRWQQGNVFSCSVMHEALHNHYTQKSLSLSPGGGGGSGGGGSGGGGSGGGGSQVQLVQSGVEVKKPGASVKVSCKASGYTFTNYYMYWVRQAPGQGLEWMGGINPSNGGTNFNEKFKNRVTLTTDSSTTTAYMELKSLQFDDTAVYYCARRDYRFDMGFDYWGQGTTVTVSSASTKGPSVFPLAPSSKSTSGGTAALGCLVKDYFPEPVTVSWNSGALTSGVHTFPAVLQSSGLYSLSSVVTVPSSSLGTQTYICNVNHKPSNTKVDKKVEPKSCDKTHTGGSSGSGSGSTGTSSSGTGTSAGTTGTSASTSGSGSGGGGGSGGGGSAGGEIVLTQSPATLSLSPGERATLSCRASKGVSTSGYSYLHWYQQKPGQAPRLLIYLASYLESGVPARFSGSGSGTDFTLTISSLEPEDFAVYYCQHSRDLPLTFGGGTKVEIKRTVAAPSVFIFPPSDEQLKSGTASVVCLLNNFYPREAKVQWKVDNALQSGNSQESVTEQDSKDSTYSLSSTLTLSKADYEKHKVYACEVTHQGLSSPVTKSFNRGEC
# light: not shown
# notes: IgG anti-BTN3A, scFab anti-PD-1; formula printed IgG(H)-VH-CH1-linker1-VL-CL-linker2-
# Key:
# [1] = molecular target: T1, PD-1 at the surface of Jurkat-PD-1 cells (human, UniProt Q15116 25-288); test: flow cytometry, Jurkat-PD-1 cells
# T1 construct: whole, on cells
# [2] = molecular target: T2, BTN3A1 at the surface of HEK-BTN3A1 cells (human, UniProt O00481 30-513); test: flow cytometry, HEK-BTN3A1 cells
# T2 construct: HEK 293T BTN2A/BTN3A KO cells transduced with a BTN3A1 expressing vector
# [3] = molecular target: T3, recombinant human BTN3A1 (human, UniProt O00481 30-254); test: SPR
# T3 construct: Soluble form of the antigen used in SPR; also called rhBTN3A1; recombinant BTN3A1 protein
# Experimental: SPR measures the interactions between two or more biomolecules. In capture kinetics analysis, an antibody is immobilized onto a gold-plated prism. The immobilized antibody is referred to as the ligand. An injection of antigen, referred to as the analyte, is carried out, often as a concentration series. The captured analytes are removed from the sensor chip surface using a regenerating agent, for example a low pH or high ionic strength solution. If investigating binding to several analytes, the antibodies are recaptured from solution before each analyte titration series. The instrument records the changes in refractive indexes (due to the accumulation or depletion of mass) in time and plots the results as sensorgrams.
# Affinity measurements with respect to BTN3A, PD-1 and PD-L1 were performed by SPR technology, for instance in a Carterra LSA Platform instrument using a soluble form of the antigen as the analyte and the antibody as the ligand. Binding was also assessed through in cellulo binding assays, on cell lines (e.g. HEK293T cells) genetically modified to express the targets of interest or genetically modified to extinct target expression.
# The 69 produced bsAbs and control mAbs were also evaluated for their binding affinity to recombinant proteins by SPR assays. The equilibrium dissociation constant (KD) was then calculated for constructs showing detectable binding.
# [4] = molecular target: T1, PD-1 at the surface of Jurkat-PD-1 cells; test: cell-based or functional assay
# [5] = molecular target: T4, PD-L1 at the surface of transduced cells (UniProt Q9NZQ7 19-290, limits assumed); test: flow cytometry, CHO-PD-L1 cells
# T4 construct: whole, on cells; CHO-PD-L1 cells in flow cytometry, Raji-PD-L1 cells in the reporter assay; also called CHO-PD-L1; Raji-PD-L1
# [6] = molecular target: T4, PD-L1 at the surface of transduced cells; test: cell-based or functional assay
# T3 sequence (O00481 30-254 limits assumed): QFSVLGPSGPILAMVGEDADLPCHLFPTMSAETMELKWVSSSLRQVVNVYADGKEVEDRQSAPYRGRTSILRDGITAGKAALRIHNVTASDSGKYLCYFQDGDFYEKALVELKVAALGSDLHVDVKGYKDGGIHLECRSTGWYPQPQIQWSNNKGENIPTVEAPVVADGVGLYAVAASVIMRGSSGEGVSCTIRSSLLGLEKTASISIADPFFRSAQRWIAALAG
# T2 sequence (O00481 30-513 limits assumed): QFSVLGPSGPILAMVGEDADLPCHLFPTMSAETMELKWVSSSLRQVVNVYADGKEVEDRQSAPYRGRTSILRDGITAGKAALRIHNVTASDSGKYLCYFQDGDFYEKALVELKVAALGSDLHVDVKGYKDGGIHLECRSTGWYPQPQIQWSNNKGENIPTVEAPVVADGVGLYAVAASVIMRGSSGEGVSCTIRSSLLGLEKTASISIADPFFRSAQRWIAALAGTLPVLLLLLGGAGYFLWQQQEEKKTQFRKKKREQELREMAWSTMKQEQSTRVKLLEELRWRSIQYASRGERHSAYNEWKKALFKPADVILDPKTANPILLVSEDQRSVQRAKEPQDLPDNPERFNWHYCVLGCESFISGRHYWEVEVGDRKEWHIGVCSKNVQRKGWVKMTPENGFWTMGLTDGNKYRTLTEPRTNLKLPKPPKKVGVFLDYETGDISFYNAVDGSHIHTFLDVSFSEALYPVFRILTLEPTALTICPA
# T1 sequence (Q15116 25-288): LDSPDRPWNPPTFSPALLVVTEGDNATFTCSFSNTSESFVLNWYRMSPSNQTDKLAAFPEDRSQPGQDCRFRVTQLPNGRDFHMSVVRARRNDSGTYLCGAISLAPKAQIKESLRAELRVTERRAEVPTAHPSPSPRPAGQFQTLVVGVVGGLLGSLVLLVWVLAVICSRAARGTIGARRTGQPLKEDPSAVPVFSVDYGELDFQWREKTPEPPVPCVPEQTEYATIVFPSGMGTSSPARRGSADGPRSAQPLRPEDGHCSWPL
# T4 sequence (Q9NZQ7 19-290 limits assumed): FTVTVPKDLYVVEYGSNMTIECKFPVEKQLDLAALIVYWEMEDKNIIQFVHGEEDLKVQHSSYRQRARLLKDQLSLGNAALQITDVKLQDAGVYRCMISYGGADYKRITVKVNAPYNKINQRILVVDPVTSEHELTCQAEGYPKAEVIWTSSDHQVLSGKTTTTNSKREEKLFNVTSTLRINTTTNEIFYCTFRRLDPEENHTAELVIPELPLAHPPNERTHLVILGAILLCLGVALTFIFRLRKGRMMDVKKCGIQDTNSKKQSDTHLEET
Binder,MFI at 10 nM [1],MFI at 100 nM [1],MFI at 10 nM [2],MFI at 100 nM [2],Kd [3],Jurkat-PD-1 activation at 10 nM [4],MFI at 10 nM [5],Jurkat-PD-1 activation at 10 nM [6],Jurkat-PD-1 activation at 100 nM [6],Jurkat-PD-1 activation at 100 nM [4]
B1,212000 MFI,362000 MFI,824000 MFI,1.24e+06 MFI,0.093 nM,,,,,
B2,179000 MFI,396000 MFI,507000 MFI,710000 MFI,,8 fold-change to medium,,,,
B3,,347000 MFI,502000 MFI,1.08e+06 MFI,0.212 nM,,,,,
B4,,,500000 MFI,950000 MFI,0.073 nM,,722000 MFI,8.5 fold-change to medium,6.9 fold-change to medium,
B5,,,1.01e+06 MFI,1.82e+06 MFI,0.073 nM,,,,,
B6,165000 MFI,290000 MFI,464000 MFI,812000 MFI,0.083 nM,5.9 fold-change to medium,,,,1.9 fold-change to medium
B7,73300 MFI,257000 MFI,410000 MFI,1.03e+06 MFI,0.068 nM,,,,,

# — patent US20260265379A1 (IMCHECK THERAPEUTICS, published 2026)
